From US20130196320A1, “METHOD FOR IMPROVING CLEAVAGE OF DNA BY ENDONUCLEASE SENSITIVE TO METHYLATION” (CELLECTIS, priority 2010, published 2013)

Legend:
[1] = target: T1, XPC4 meganuclease (I-CreI-derived) (Artificial Sequence); assay: FP; 10 mM CaCl2, 150 mM NaCl, pH8, 25 C
T1 chain: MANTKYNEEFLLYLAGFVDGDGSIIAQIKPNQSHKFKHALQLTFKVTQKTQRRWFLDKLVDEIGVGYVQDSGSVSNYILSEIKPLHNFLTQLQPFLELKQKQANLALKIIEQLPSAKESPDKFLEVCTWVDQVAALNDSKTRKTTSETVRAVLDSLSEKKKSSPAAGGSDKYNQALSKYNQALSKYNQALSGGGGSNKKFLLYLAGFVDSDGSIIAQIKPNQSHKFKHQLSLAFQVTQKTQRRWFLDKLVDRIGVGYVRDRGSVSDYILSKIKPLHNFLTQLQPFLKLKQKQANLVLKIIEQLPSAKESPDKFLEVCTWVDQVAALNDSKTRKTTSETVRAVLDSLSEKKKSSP

[2] = target: T2, ADCY9 meganuclease (I-CreI-derived) (Artificial Sequence); assay: FP; apparent Kd, sigmoidal binding; 10 mM CaCl2, 150 mM NaCl, pH8, 25 C
T2 chain: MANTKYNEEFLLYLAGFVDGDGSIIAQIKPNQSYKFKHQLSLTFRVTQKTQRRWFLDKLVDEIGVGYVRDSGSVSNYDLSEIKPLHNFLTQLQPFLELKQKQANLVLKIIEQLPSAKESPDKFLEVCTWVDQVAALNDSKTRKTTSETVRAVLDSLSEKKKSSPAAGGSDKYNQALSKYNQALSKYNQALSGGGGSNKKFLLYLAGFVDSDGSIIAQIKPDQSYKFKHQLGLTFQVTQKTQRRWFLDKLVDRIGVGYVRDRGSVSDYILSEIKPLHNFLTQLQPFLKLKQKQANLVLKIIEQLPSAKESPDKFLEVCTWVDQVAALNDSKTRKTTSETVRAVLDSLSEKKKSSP

[3] = target: T3, I-CreI D75N (UniProt P05725 SEQ:1-167); assay: cleavage_in_vitro; relative to unmethylated C1221; settings: tags: C-terminal 6xHis, E. coli BL21; chain copies: 2 (inferred)
T3 chain: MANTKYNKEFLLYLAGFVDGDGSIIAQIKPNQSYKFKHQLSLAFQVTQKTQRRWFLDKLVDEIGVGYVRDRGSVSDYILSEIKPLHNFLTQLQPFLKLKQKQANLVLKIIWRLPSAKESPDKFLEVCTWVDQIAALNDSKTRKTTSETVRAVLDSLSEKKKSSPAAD
Procedure: FIG. 3: In vitro cleavage of unmethylated or methylated C1221 by I-CreI D75N. 50 nM C1221 containing either 0, 1, 2 or 3 methylated CG was incubated with increasing concentrations of I-CreI D75N (0 to 2 μM) in reaction buffer (10 mM Tris-HCl, 150 mM NaCl, 10 mM MgCl₂, pH8) for an hour at 37° C. The reaction was stopped and cleaved and uncleaved C1221 (top and bottom panel respectively) were quantify and plotted as function of I-CreI D75N concentration.
To investigate the influence of C1221 methylation on the nuclease activity of I-CreI, an in vitro cleavage assay with either unmethylated or fully methylated C1221 duplex (SEQ ID NOs: 4-5 and 12-13 respectively) was performed. A constant amount of C1221 duplex (50 nM) was incubated with increasing concentration of I-CreI (0 to 2 μM) in a total volume of 25 μL of reaction buffer (10 mM Tris-HCl, 150 mM NaCl, 10 mM MgCl₂, pH8). Cleavage reaction was allowed to proceed 1 hour at 37° C. and then stopped by addition of 5 μL of 6× stop buffer (45% glycerol, 95 mM EDTA, 1.5% (w/v) SDS, 1.5 mg/mL proteinase K and 0.048% (w/v) bromophenol blue) followed by an hour incubation at 37° C. Cleaved and uncleaved DNA products were separated by PAGE using a TGX Any kD precast gel (Bio-Rad), stained with SYBR Green and then quantified using Quantity One software (Bio-Rad).
To investigate the influence of C1221 methylation on the nuclease activity of I-CreI D75N, in vitro cleavage assay with C1221 duplex containing either 0, 1, 2 or 3 methylated CG (SEQ ID NOs: 4-5, 6-7, 8-9, 10-11 respectively) was performed, according to the procedure described for I-CreI wild type.

[4] = target: T2, ADCY9 meganuclease (I-CreI-derived); assay: FP; 10 mM CaCl2, 150 mM NaCl, pH8, 25 C
[5] = target: T4, I-CreI wild type (Chlamydomonas reinhardtii, UniProt P05725 SEQ:1-163); assay: FP; 400 mM NaCl, 10 mM CaCl2, pH8, 25 C; settings: tags: C-terminal 6xHis, E. coli BL21; chain copies: 2 (inferred); label: 5' fluorescein on forward strand
T4 sequence: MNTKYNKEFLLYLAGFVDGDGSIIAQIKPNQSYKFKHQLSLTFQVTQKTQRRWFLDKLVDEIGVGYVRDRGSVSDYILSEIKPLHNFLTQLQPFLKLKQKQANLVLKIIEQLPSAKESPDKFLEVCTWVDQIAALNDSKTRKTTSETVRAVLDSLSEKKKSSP
Procedure: (§1) FIG. 4: Spectrofluorimetric titration of fluorescein-labeled C1234 by I-Cre I wild type. 25 nM of C1234 duplex was incubated with increasing concentrations of I-Cre I [from 0 to 400 nM, only 0-80 nM shown] in binding buffer (10 mM Tris-HCl, 400 mM NaCl, 10 mM CaCl₂, 10 mM DTT, pH8) at 25° C. After 30 minutes incubation, the fluorescence anisotropy of the mixture was recorded with a Pherastar Plus (BMG Labtech) operating in fluorescence polarization end point mode with excitation and emission wavelengths set to 495 and 520 nm respectively. Normalized fluorescence anisotropy is plotted as a function of active I-Cre I concentration. Apparent dissociation constant were determined by fitting raw data by an hyperbolic function (Aₓ=(A_{∞}*[Meganuclease])/(Kd+[Meganuclease]) with Aₓ, the fluorescence anisotropy value obtained at a given meganuclease concentration, A_{∞}, the fluorescence anisotropy value obtained at saturating concentration of meganuclease and Kd the dissociation constant of the equilibrium studied).
Fluorescein labeled C1234 oligonucleotides were synthesized and HPLC-purified by Eurogentec. To prepare C 1234 duplex corresponding to I-Cre I double strand DNA wild type target, C1234 forward (SEQ ID NO: 31, “a” strand below) labeled with Fluorescein on its 5′ end was mixed with 1 equivalent of C1234_reverse (SEQ ID NO: 32, “b” strand below) in 100 mM Tris-HCl, 50 mM EDTA, 150 mM NaCl, pH8. The mixture was heated to 95° C. for 2 min and then cooled down to 25° C. over 1 hour. C1234 duplex was eventually purified by anion exchange chromatography using a miniQ PE column (GE healthcare) pre-equilibrated with buffer A (20 mM Tris-HCl, pH7.4). Single stranded oligonucleotides and other contaminants were first discarded using a 0 to 360 mM NaCl step gradient and elution of pure C1234 duplex was performed with a 360-1000 mM NaCl linear gradient (5 column volumes). C 1234 duplex and fluorescein final concentrations were assessed by spectrophotometry using their respective extinction coefficients ε₂₆₀ₙₘ=62900 M⁻¹ cm⁻¹ and ε₄₉₅ₙₘ=83000 M⁻¹ cm⁻¹. […]

[6] = target: T4, I-CreI wild type; assay: FP; 400 mM NaCl, 10 mM CaCl2, pH8, 25 C; no saturation; settings: tags: C-terminal 6xHis, E. coli BL21; chain copies: 2 (inferred); label: 5' fluorescein on forward strand
Procedure: as §1
(§2) Fluorescein labeled C1234 oligonucleotides were synthesized and HPLC-purified by Eurogentec. […] C 1234 duplex and fluorescein final concentrations were assessed by spectrophotometry using their respective extinction coefficients ε₂₆₀ₙₘ=62900 M⁻¹ cm⁻¹ and ε₄₉₅ₙₘ=83000 M⁻¹ cm⁻¹. […]

[7] = target: T1, XPC4 meganuclease (I-CreI-derived); assay: FP; 10 mM CaCl2, 150 mM NaCl, pH8, 25 C; not significantly different from unmethylated
[8] = target: T4, I-CreI wild type; assay: FP; 10 mM Tris pH8, 400 mM NaCl, 10 mM CaCl2, 10 mM DTT, 25 C; settings: tags: C-terminal 6xHis, E. coli BL21; chain copies: 2 (inferred); label: 5' fluorescein on forward (a) strand
Procedure: as §1, §2

B1: XPC4.1 (dsDNA)
DNA 1: TCGAGATGTCACACAGAGGTACGA
DNA 2: TCGTACCTCTGTGTGACATCTCGA
**Q.** With B1 as the binder, how does the Kd [1] read?
**A.** 108 nM

B2: ADCY9.1_Me -3a/-2b (dsDNA)
DNA 1: CCCAGATGTCGTACAGCAGCTTGG
DNA 2: CCAAGCTGCTGTACGACATCTGGG
modifications: 5mC at -3a, -2b
**Q.** For B2, which Kd [2] is on record?
**A.** 431 nM

B3: C1221_1Me (dsDNA)
DNA 1: GGGGTCAAAACGTCGTACGACGTTTTGAGGGG
DNA 2: CCCCTCAAAACGTCGTACGACGTTTTGACCCC
modifications: 5mC at 1 CpG on both strands
**Q.** Which activity [3] does the source give for B3 here?
**A.** ~3 fold increase of C50

B4: C1221_2Me (dsDNA)
DNA 1: GGGGTCAAAACGTCGTACGACGTTTTGAGGGG
DNA 2: CCCCTCAAAACGTCGTACGACGTTTTGACCCC
modifications: 5mC at 2 CpG on both strands
**Q.** With B4 as the binder, how does the activity [3] read?
**A.** > 10 fold increase of C50

B5: C1221_3Me (dsDNA)
DNA 1: GGGGTCAAAACGTCGTACGACGTTTTGAGGGG
DNA 2: CCCCTCAAAACGTCGTACGACGTTTTGACCCC
modifications: 5mC at 3 CpG on both strands
**Q.** Which activity [3] does the source give for B5 here?
**A.** > 10 fold increase of C50

B6: ADCY9.1 (dsDNA)
DNA 1: CCCAGATGTCGTACAGCAGCTTGG
DNA 2: CCAAGCTGCTGTACGACATCTGGG
**Q.** B6 was tested. Which Kd [4] did it give?
**A.** 190 nM

B7: C1234_Me-2b (dsDNA)
DNA 1: TCAAAACGTCGTGAGACAGTTTGG
DNA 2: CCAAACTGTCTCACGACGTTTTGA
modifications: 5mC at -2b
**Q.** Which Kd [5] does the source give for B7 here?
**A.** 40.8 nM

B8: C1234_Me-6a/-3a (dsDNA)
DNA 1: TCAAAACGTCGTGAGACAGTTTGG
DNA 2: CCAAACTGTCTCACGACGTTTTGA
modifications: 5mC at -6a, -3a
**Q.** With B8 as the binder, how does the Kd [5] read?
**A.** ≤ 2.5 nM

B9: C1234_Me-5b (dsDNA)
DNA 1: TCAAAACGTCGTGAGACAGTTTGG
DNA 2: CCAAACTGTCTCACGACGTTTTGA
modifications: 5mC at -5b
**Q.** How did the Kd [5] turn out when B9 was run?
**A.** 24 nM

B10: C1234_Me-5b/-2b (dsDNA)
DNA 1: TCAAAACGTCGTGAGACAGTTTGG
DNA 2: CCAAACTGTCTCACGACGTTTTGA
modifications: 5mC at -5b, -2b
**Q.** How did the Kd [6] turn out when B10 was run?
**A.** > 1000 nM

B11: XPC4.1_Me -11a/-10b & +10a/+11b (dsDNA)
DNA 1: TCGAGATGTCACACAGAGGTACGA
DNA 2: TCGTACCTCTGTGTGACATCTCGA
modifications: 5mC at -11a, -10b, +10a, +11b
**Q.** For B11, which Kd [7] is on record?
**A.** 127 nM

B12: C1234_Me full (dsDNA)
DNA 1: TCAAAACGTCGTGAGACAGTTTGG
DNA 2: CCAAACTGTCTCACGACGTTTTGA
modifications: 5mC at -6a, -3a, -5b, -2b
**Q.** For B12, which Kd [6] is on record?
**A.** > 1000 nM

B13: C1234 (dsDNA)
DNA 1: TCAAAACGTCGTGAGACAGTTTGG
DNA 2: CCAAACTGTCTCACGACGTTTTGA
**Q.** For B13, which Kd [8] is on record?
**A.** ≤ 2.5 nM
